This experiment concerns the target T1, human B7-H4 at the cell surface (human, UniProt Q7Z7D3 25-282).
T1 sequence (looked up): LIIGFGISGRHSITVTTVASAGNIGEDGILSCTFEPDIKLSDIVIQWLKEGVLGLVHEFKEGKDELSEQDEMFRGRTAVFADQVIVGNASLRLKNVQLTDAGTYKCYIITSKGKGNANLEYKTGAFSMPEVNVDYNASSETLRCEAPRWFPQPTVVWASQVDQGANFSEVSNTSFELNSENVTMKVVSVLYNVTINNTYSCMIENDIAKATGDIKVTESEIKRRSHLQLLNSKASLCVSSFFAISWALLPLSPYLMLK
Nature of the experiment: cell-based or functional assay.

B1: anti-B7H4 scFv clone 3#68 (scFv)
scFv: QPGLTQPPSASGTPGQRVTISCSGSSSNIGSNYVYWYQQFPGTAPKLLIYRNNQRPSGVPDRFSGSKSGTSASLAISGLRSEDEADYYCAAWDDSLSVWVFGGGTKVTVLGGSSRSSSSGGSGSGGGGQVTLKESGAEVKNPGSSVKVSCKASGGTFSSYAISWLRQAPGQGLEWMGWINPNSGGSDYAQRFQGRVTMTRDTSINTVYMELSRLRSDDTAVYYCARVEKRGYYYGMDVWGQGTMVTVSSFEGSEQ
Take B1: the “IFN-γ production of MART-1 TCR T cells in presence of B7-H4+ TAMs” value is greater than 2 folds.

B2: anti-B7H4 scFv clone 3#54 (scFv)
scFv: RPVLTQPPSAAGTPGQRVTISCSGSSSNIGSNYVYWYQQLPGMAPKLLIYTNNQRPSGVPGRFSGSKSGTSASLAISGLRSEDEADYYCAAWDDSLNGWVFGGGTELTVLGGSSRSSSSGGGGSGGGGQVQLQESGPGLVKPSETLSLTCNVSGRSVSSGFYWSWIRQRPGKGLEWVGSIYRSGLTYYNPSLKSRVTISVDTSKNQFSLKLSSVTAADTAVYYCARATPWYYYGMDVWGQGTTVTVSSFEGSEQ
As to B2, the “IFN-γ production of MART-1 TCR T cells in presence of B7-H4+ TAMs” value is greater than 2 folds.

The record behind these values is US20140308259A1 (University of Pennsylvania, published 2014).
